# Results from US20210017289A1 (AbbVie / Abbott, published 2021).
# T1: human OX40 expressed on cells (human, UniProt P43489 29-277)
# T1 sequence: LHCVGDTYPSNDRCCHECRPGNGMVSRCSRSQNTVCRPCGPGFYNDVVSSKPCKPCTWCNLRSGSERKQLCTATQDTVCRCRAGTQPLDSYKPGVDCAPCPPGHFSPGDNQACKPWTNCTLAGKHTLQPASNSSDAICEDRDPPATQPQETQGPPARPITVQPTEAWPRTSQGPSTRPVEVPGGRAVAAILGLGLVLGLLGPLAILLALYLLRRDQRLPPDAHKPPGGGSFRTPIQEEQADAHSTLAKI
# T2: human OX40 chimera with murine CRDII replacing human CRDII (human/mouse chimera, UniProt P43489 29-277)
# T2 chain: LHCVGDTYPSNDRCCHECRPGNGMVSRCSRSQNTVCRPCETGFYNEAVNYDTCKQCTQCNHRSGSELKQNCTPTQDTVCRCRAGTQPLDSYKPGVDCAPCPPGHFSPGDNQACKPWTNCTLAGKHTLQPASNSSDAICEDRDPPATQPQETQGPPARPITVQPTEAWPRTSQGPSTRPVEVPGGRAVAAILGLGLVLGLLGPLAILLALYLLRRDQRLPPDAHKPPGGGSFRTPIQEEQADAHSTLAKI
# T3: human OX40-FC (R&D Systems) (human, UniProt P43489 29-216)
# T3 construct: Purchased reagent; also called recombinant human OX40; not shown: Fc part of the purchased fusion
# T3 sequence: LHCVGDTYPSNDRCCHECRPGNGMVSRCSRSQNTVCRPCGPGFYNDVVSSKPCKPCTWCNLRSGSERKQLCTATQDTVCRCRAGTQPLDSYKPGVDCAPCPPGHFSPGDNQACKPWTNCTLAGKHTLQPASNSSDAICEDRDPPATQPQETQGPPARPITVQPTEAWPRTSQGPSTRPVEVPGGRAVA
# T4: recombinant soluble human OX40 ECD (residues 1-216) (human, UniProt P43489 29-216)
# T4 construct: Purchased from Creative Biomart and further purified by gel filtration; also called recombinant extracellular domain of human OX40
# T4 sequence: T3 sequence
# B1: Hu3738 (antibody, V domains shown)
# VH: EVQLVESGGGLVQPGGSLRLSCAASGFTFSRYGMSWVRQAPGKGLELVATINSNGGRTYYPDSVKGRFTISRDNAKNSLYLQMNSLRAEDTAVYYCAREGITTAYAMDYWGQGTTVTVSS
# VL: DIVMTQSPDSLAVSLGERATINCKASQSVDYDGDSYMHWYQQKPGQPPKLLIYAASILESGVPDRFSGSGSGTDFTLTISSLQAEDVAVYYCQQSNEDPRTFGGGTKVEIKR
# notes: Humanized antibody; also called exemplary anti-OX40 antibody Hu3738; Hu3738 VH.1b / Hu3738 VL.1
# Tests used:
# [1] = target: T1, human OX40 expressed on cells; assay: cell-based or functional assay
# [2] = target: T2, human OX40 chimera with murine CRDII …; assay: flow cytometry on 293s-huOX40-muCRDII cells
# Experimental: After plating cells, 50 μL of Hu3738 or isotype control antibody at 2 μg/mL were added to corresponding wells in duplicate for each cell line and allowed to incubate on ice for 30 minutes. Following incubation, 200 μL of Dulbecco's Phosphate Buffered Saline (DPBS) was added into each well and plates were spun down at 1000 rpm for three minutes. Supernatants from each well were removed and 50 μL of Cy5-Donkey anti-Human IgG (Jackson ImmunoResearch) secondary antibody was added at a 1:250 dilution, which was then incubated for 30 minutes on ice in the dark. Following the incubation period, 200 μL of DPBS was added prior to spinning down the plate at 1000 rpm for three minutes. Supernatants were removed and each well was re-suspended with 100 μL of DPBS+1% Formaldehyde. Samples were analyzed on the dual laser FACSCalibur flow cytometer (Becton Dickinson).
# [3] = target: T3, human OX40-FC (R&D Systems); assay: ELISA on plates coated with human OX40-Fc
# Experimental: Immunolon 4×HB 96-well plates (Thermo Scientific) were coated with 1 μg/mL of human OX40-FC (R&D Systems) at 4° C. overnight. Plates were blocked with phosphate-buffered saline (PBS) containing 1% bovine serum albumin (BSA) for 30 minutes at room temperature and then washed three times with PBST (PBS with 0.1% Tween 20) using a plate washer. OX40-coated plates were then incubated with indicated concentrations of test antibody at room temperature for one hour. Plates were washed four times with PBST and then incubated for 1 hour at room temperature with 100 μL of goat anti-human Fab fragment specific-Biotin (Jackson ImmunoResearch) prepared to a dilution of 1:5000 in PBS containing 1% BSA. Plates were then washed five times in PBST and 100 μL of a 1:1000 dilution of streptavidin-horseradish peroxidase (HRP) (Thermo Scientific) was added to each well and incubated for 30 minutes at room temperature. Plates were subsequently washed five times in PBST and 100 μL of TMB One component (Surmodics) were added to each well and incubated at room temperature (RT) until color developed (approximately 5-10 minutes). Optical density (OD) was read at 650 nm (Molecular Devices Spectromax190).
# [4] = target: T4, recombinant soluble human OX40 ECD …; assay: SPR (Biacore T200, 25 °C), antibody captured by anti-Fc, OX40 ECD as analyte
# Experimental: The binding kinetics of an anti-OX40 antibody to recombinant soluble OX40 ECD (extracellular domain) were determined by surface plasmon resonance-based measurements made on a Biacore T200 instrument (GE Healthcare) at 25° C. using an anti-Fc capture assay approach. Recombinant extracellular domains (ECDs) of human OX40 (residues 1-216) and rhesus macaque OX40 (residues 28-214) were purchased (Creative Biomart) and further purified by gel filtration using Superdex200 (GE Healthcare) in 10 mM 4-(2-hydroxyethyl)-1-piperazineethanesulfonic acid (HEPES), pH 7.4, 150 mM NaCl, 3 mM ethylenediaminetetraacetic acid (EDTA). Rhesus macaque (Macaca mulatta) OX40 is identical to cynomolgus monkey (Macaca fascicularis) OX40 (SEQ ID NO:2) at the amino acid level. Chip preparation and binding kinetic measurements were made in the assay buffer HBS-EP+(10 mM HEPES, pH 7.4, 150 mM NaCl, 3 mM EDTA, 0.05% Tween 20). For anti-Fc capture chip preparation, approximately 2000 Resonance Units (RU) of goat anti-human IgG Fc polyclonal antibody (Thermo Fisher Scientific Inc.), diluted to 25 μg/mL in 10 mM sodium acetate (pH 4.5), was directly immobilized across a CMS biosensor chip using a standard amine coupling kit according to manufacturer's instructions and procedures. Unreacted moieties on the biosensor surface were blocked with ethanolamine. For binding kinetics measurements each assay cycle consisted of the following steps: 1) capture of test anti-OX40 antibody on test surface only; 2) analyte injection (OX40 ECD or buffer only) over both reference and test surface, 240 μL at 80 μL/min, after which the dissociation was monitored for 900 seconds at 80 μL/min; 3) regeneration of capture surface by 10 mM Glycine-HCl, pH 1.5 injections over both reference and test surface. During the assay, all measurements were referenced against the capture surface alone (i.e., with no captured test antibody) and buffer-only injections were used for double referencing. OX40 injections ranged in concentration from 900 nM or 300 nM to 11.11 nM in a randomized 9- or 3-fold dilution series, respectively. Data were processed and fitted globally to a 1:1 binding model using Biacore T200 Evaluation software to determine the binding kinetic rate constants, kₐ (M⁻¹s⁻¹) and kd (s¹), and the equilibrium dissociation constant KD (M).
binder,measurement,setting,value
B1,"EC50 With Cross-linker (nM), NF-κB signaling",[1],0.02 nM
same,"EC50 Without Cross-linker (nM), NF-κB signaling",[1],22 nM
same,binding result,[2],no binding (tested: 2 µg/mL)
same,EC50,[3],0.044 nM
same,Kd,[4],42 nM
same,koff,[4],0.042 s⁻¹
